In US20210338656A1, “IMMUNOSTIMULATORY AGENTS IN COMBINATION WITH ANGIOGENESIS INHIBITORS” (Alkermes Pharma Ireland Limited, priority 2020, published 2021):

Columns and labels:
[1] = test system: gene expression in MC38 tumors; experiment: RNA-Seq gene expression in MC38 tumors, Day 10; format: in vivo, mouse
Protocol: On Day 10 spleens and tumors were collected and weighed from all animals in Groups 7 through 12 and weighed prior to processing. Tissues from four animals in each group were processed to single cell suspensions for flow cytometry analysis at CRL-NC (described below). Tissues from the remaining six animals in each group were preserved in RNAlater, stored at −80° C.
Tumors and spleens were dissected on the appropriate day of the study and were weighed and immediately placed in RNAlater Stabilizing Reagent to preserve the tissue and stored overnight at 4 deg C. The following day, the samples were removed from RNA later and snap frozen and placed at −80 deg C.
Unless otherwise indicated, everything was done on ice and the materials were prechilled on ice. The tissues were homogenized in TRIzol in Precellys tissue grinding tubes. After homogenization, the TRIzol solutions were transferred to 1.5 ml tubes and spun for 5 min at 12,000×g to eliminate the insoluble material. The TRIzol solutions were then transferred to Phasemaker tubes. Chloroform was added, the tubes were capped, and shaken vigorously for 15 seconds. The samples were then incubated at room temperature for 2-15 minutes and centrifuged at 12,000×g for 5 minutes. The upper, aqueous phase was then transferred to a new tube and an equal volume of 70% ethanol was added and it was vortexed. The liquid was then transferred to Qiagen RNeasy columns and centrifuged at 8000×g. DNAse was added to each tube to eliminate any residual DNA. The columns were then washed and eluted as directed by the kit. The RNA concentrations were determined using a Qubit.
Libraries were prepared for sequencing by using the Mouse Transcriptome Ion AmpliSeq Library Preparation on the Ion Chef System as directed by the manufacturer. Eight samples of purified RNA and 8 unique IonCode molecular barcodes were added to a 96 well plate and were prepared at a time. After the libraries were prepared, they were templated and loaded onto an Ion Torrent 540 chip using the Ion 540 Chef Kit from ThermoFisher. The 540 chips were then loaded into a Gene Studio S5 sequencer and sequenced.
Raw sequencing data was processed by Torrent Suite (v5.8.0) software that came with the Gene Studio sequencer (ThermoFisher). For each sample, this program summarized gene expression in a CHP file. The CHP files were then loaded into the Transcriptome Analysis Console (TAC) program (ThermoFisher).

[2] = Tolerability in vivo in mice relative to rhIL-2; set-up: species or system mouse; settings: doses that elicit equivalent or greater expansion of effector cells relative to Tregs
[3] = T cell signaling gene, MC38 tumors Day 10 RNA-Seq, lucitanib 10 mg/kg po, SEQ ID NO. 2 3 mg/kg sc
[4] = Type I/II interferon pathway gene, MC38 tumors Day 10 RNA-Seq, lucitanib 10 mg/kg po, SEQ ID NO. 2 3 mg/kg sc
[5] = antigen presentation gene, MC38 tumors Day 10 RNA-Seq, lucitanib 10 mg/kg po, SEQ ID NO. 2 3 mg/kg sc

B1: SEQ ID NO: 2: mouse ortholog construct (murine surrogate) of the circularly permuted IL-2/IL-2Rα fusion protein of SEQ ID NO: 1 (protein)
chain: SKSFQLEDAENFISNIRVTVVKLKGSDNTFECQFDDESATVVDFLRRWIAFCQSIISTSPQGGSSSTQQQQQHLEQLLMDLQELLSRMENYRNLKLPRMLTFKFYLPKQATELKDLQCLEDELGPLRHVLDLTQGSGGGSELCLYDPPEVPNATFKALSYKNGTILNCECKRGFRRLKELVYMRCLGNSWSSNCQCTSNSHDKSRKQVTAQLEHQKEQQTTTDMQKPTQSMHQENLTGHCREPPPWKHEDSKRIYHFVEGQSVHYECIPGYKALQRGPAISICKMKCGKTGWTQPQLTCVDGSHHHHHH
modifications: Mouse cpIL-2IL-2R-alpha
Cd3e mean expression value relative to vehicle group [1, 3]: 3.81 | Cd4 mean expression value relative to vehicle group [1, 3]: 1.46 | Cd8a mean expression value relative to vehicle group [1, 3]: 4.64 | Cd8b1 mean expression value relative to vehicle group [1, 3]: 8.03 | Cd28 mean expression value relative to vehicle group [1, 3]: 2.86 | Cd247 mean expression value relative to vehicle group [1, 3]: 3.95 | Cd3d mean expression value relative to vehicle group [1, 3]: 5.96 | Ctla4 mean expression value relative to vehicle group [1, 3]: 0.60 | H2-Aa mean expression value relative to vehicle group [1, 3]: 1.27 | H2-Ab1 mean expression value relative to vehicle group [1, 3]: 2.25 | H2-Eb1 mean expression value relative to vehicle group [1, 3]: 1.29 | Icos mean expression value relative to vehicle group [1, 3]: 1.69 | Ifng mean expression value relative to vehicle group [1, 3]: 2.06 | Il2 mean expression value relative to vehicle group [1, 3]: 0.31 | Lck mean expression value relative to vehicle group [1, 3]: 4.42 | Lcp2 mean expression value relative to vehicle group [1, 3]: 0.23 | Nfatc2 mean expression value relative to vehicle group [1, 3]: 0.67 | Pdcd1 mean expression value relative to vehicle group [1, 3]: 2.42 | Ptpn22 mean expression value relative to vehicle group [1, 3]: 2.19 | Ptprc mean expression value relative to vehicle group [1, 3]: 2.32 | Zap70 mean expression value relative to vehicle group [1, 3]: 2.63 | B2m mean expression value relative to vehicle group [1, 4]: 0.03 | Bst2 mean expression value relative to vehicle group [1, 4]: 0.08 | Cd44 mean expression value relative to vehicle group [1, 4]: −0.19 | Ciita mean expression value relative to vehicle group [1, 4]: 1.36 | Fcgr1 mean expression value relative to vehicle group [1, 4]: 1.12 | Gm10499 mean expression value relative to vehicle group [1, 4]: −0.02 | H2-Aa mean expression value relative to vehicle group [1, 4]: 1.27 | H2-Ab1 mean expression value relative to vehicle group [1, 4]: 2.25 | H2-Eb1 mean expression value relative to vehicle group [1, 4]: 1.29 | H2-K1 mean expression value relative to vehicle group [1, 4]: 0.04 | H2-Q10 mean expression value relative to vehicle group [1, 4]: −0.28 | Icam1 mean expression value relative to vehicle group [1, 4]: 0.88 | Ifi35 mean expression value relative to vehicle group [1, 4]: 0.38 | Ifit2 mean expression value relative to vehicle group [1, 4]: 0.54 | Ifitm1 mean expression value relative to vehicle group [1, 4]: −0.13 | Ifna2 mean expression value relative to vehicle group [1, 4]: 0 | Ifnar1 mean expression value relative to vehicle group [1, 4]: 0.35 | Ifnar2 mean expression value relative to vehicle group [1, 4]: 0.2 | Ifnb1 mean expression value relative to vehicle group [1, 4]: −0.16 | Ifng mean expression value relative to vehicle group [1, 4]: 2.06 | Ifngr1 mean expression value relative to vehicle group [1, 4]: 0.23 | Irf1 mean expression value relative to vehicle group [1, 4]: −0.01 | Irf4 mean expression value relative to vehicle group [1, 4]: 0.92 | Irf5 mean expression value relative to vehicle group [1, 4]: 0.43 | Irf8 mean expression value relative to vehicle group [1, 4]: 1.46 | Mx1 mean expression value relative to vehicle group [1, 4]: 0.6 | Ncam1 mean expression value relative to vehicle group [1, 4]: −0.2 | Pml mean expression value relative to vehicle group [1, 4]: 0.62 | Ptpn6 mean expression value relative to vehicle group [1, 4]: 0.36 | Socs3 mean expression value relative to vehicle group [1, 4]: 0.09 | Tyk2 mean expression value relative to vehicle group [1, 4]: 0.36 | Vcam1 mean expression value relative to vehicle group [1, 4]: 0.13 | B2m mean expression value relative to vehicle group [1, 5]: 0.03 | Btk mean expression value relative to vehicle group [1, 5]: 0.06 | Cd14 mean expression value relative to vehicle group [1, 5]: 0.51 | Cd36 mean expression value relative to vehicle group [1, 5]: −0.08 | Cd74 mean expression value relative to vehicle group [1, 5]: 1.14 | Ctsc mean expression value relative to vehicle group [1, 5]: 0.82 | Ctss mean expression value relative to vehicle group [1, 5]: 1.2 | Cybb mean expression value relative to vehicle group [1, 5]: 0.8 | Fcgr1 mean expression value relative to vehicle group [1, 5]: 1.12 | H2-Aa mean expression value relative to vehicle group [1, 5]: 1.27 | H2-Ab1 mean expression value relative to vehicle group [1, 5]: 2.25 | H2-DMa mean expression value relative to vehicle group [1, 5]: 1.16 | H2-DMb2 mean expression value relative to vehicle group [1, 5]: 0.65 | H2-Ea-ps mean expression value relative to vehicle group [1, 5]: 0 | H2-Eb1 mean expression value relative to vehicle group [1, 5]: 1.29 | H2-K1 mean expression value relative to vehicle group [1, 5]: 0.04 | H2-Ob mean expression value relative to vehicle group [1, 5]: 1.61 | H2-Q10 mean expression value relative to vehicle group [1, 5]: −0.28 | Ly96 mean expression value relative to vehicle group [1, 5]: 0.27 | Ncf4 mean expression value relative to vehicle group [1, 5]: 0.86 | Psmb9 mean expression value relative to vehicle group [1, 5]: 0.03 | Tap1 mean expression value relative to vehicle group [1, 5]: 0.12 | Tlr1 mean expression value relative to vehicle group [1, 5]: 0.62 | Tlr2 mean expression value relative to vehicle group [1, 5]: 0.36 | Tlr4 mean expression value relative to vehicle group [1, 5]: 0.21 | expression of genes associated with cytotoxic immune cell function and T cell activation ([1]; tumors): Increased expression | tolerability relative to recombinant human IL-2 (rhIL-2) [2]: improved tolerability
